Reference: the supplement of paper PMC9112550, “Optimization of the antimicrobial peptide Bac7 by deep mutational scanning” (BMC Biology, 2022)

Tested on: Escherichia coli TOP10
Experiment: shrunken log2 fold change of peptide-encoding DNA abundance (4.5 h post-induction vs induction); higher = less antimicrobial activity (less host growth inhibition)
Details: time post-induction: 4.5 h; library: site-saturation at positions 5, 18, 19, 20
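Also: peptides expressed intracellularly from a pBAD plasmid library in pooled LB shake-flask culture, induced with 0.3% L-arabinose, DNA abundance read by NGS, three biological replicates, DESeq2 with apeglm shrinkage.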

| Sequence | shrunken log2 fold change |
| --- | --- |
| RRIRVRPPRLPRPRPRPWAGPRP | 0.116 |
| RRIRVRPPRLPRPRPRPWAIPRP | -0.0122 |
| RRIRVRPPRLPRPRPRPWCSPRP | -0.638 |
| RRIRVRPPRLPRPRPRPWDKPRP | -0.0363 |
| RRIRVRPPRLPRPRPRPWENPRP | -0.0208 |
| RRIRVRPPRLPRPRPRPWFHPRP | -0.711 |
| RRIRVRPPRLPRPRPRPWFRPRP | -0.304 |
| RRIRVRPPRLPRPRPRPWGFPRP | 0.0189 |
| RRIRVRPPRLPRPRPRPWHFPRP | -0.0232 |
| RRIRVRPPRLPRPRPRPWIWPRP | 0.00605 |
| RRIRVRPPRLPRPRPRPWNCPRP | 0.0131 |
| RRIRVRPPRLPRPRPRPWNEPRP | -0.0886 |
| RRIRVRPPRLPRPRPRPWPSPRP | 0.143 |
| RRIRVRPPRLPRPRPRPWSWPRP | 0.15 |
| RRIRVRPPRLPRPRPRPWTKPRP | -0.106 |
| RRIRVRPPRLPRPRPRPWTMPRP | -0.134 |
| RRIRVRPPRLPRPRPRPWTWPRP | -0.135 |
| RRIRVRPPRLPRPRPRPWVKPRP | -0.235 |
| RRIRVRPPRLPRPRPRPWVNPRP | 0.0119 |
| RRIRVRPPRLPRPRPRPWVYPRP | -0.137 |
| RRIRVRPPRLPRPRPRPWWNPRP | -0.0063 |
| RRIRVRPPRLPRPRPRPWYGPRP | -0.367 |
| RRIRVRPPRLPRPRPRPWYPPRP | -0.884 |
| RRIRVRPPRLPRPRPRPYAWPRP | 0.0346 |
| RRIRVRPPRLPRPRPRPYCEPRP | -0.0433 |

| Sequence | shrunken log2 fold change |
| --- | --- |
| RRIRVRPPRLPRPRPRPYCVPRP | -0.125 |
| RRIRVRPPRLPRPRPRPYDEPRP | -0.0163 |
| RRIRVRPPRLPRPRPRPYFCPRP | -0.483 |
| RRIRVRPPRLPRPRPRPYFLPRP | -0.149 |
| RRIRVRPPRLPRPRPRPYGEPRP | -0.204 |
| RRIRVRPPRLPRPRPRPYHFPRP | -0.111 |
| RRIRVRPPRLPRPRPRPYHRPRP | -2.18 |
| RRIRVRPPRLPRPRPRPYIDPRP | -0.372 |
| RRIRVRPPRLPRPRPRPYILPRP | -0.278 |
| RRIRVRPPRLPRPRPRPYKLPRP | -0.745 |
| RRIRVRPPRLPRPRPRPYMMPRP | -0.00989 |
| RRIRVRPPRLPRPRPRPYQKPRP | -0.0384 |
| RRIRVRPPRLPRPRPRPYRLPRP | 0.0399 |
| RRIRVRPPRLPRPRPRPYTDPRP | -0.339 |
| RRIRVRPPRLPRPRPRPYVAPRP | -0.643 |
| RRIRVRPPRLPRPRPRPYVMPRP | -0.619 |
| RRIRVRPPRLPRPRPRPYWGPRP | -0.526 |
| RRIRVRPPRLPRPRPRPYWTPRP | -0.366 |
| RRIRVRPPRLPRPRPRPYYDPRP | -0.429 |
| RRIRVRPPRLPRPRPRPYYYPRP | -0.796 |
| RRIRWRPPRLPRPRPRPAAGPRP | 0.545 |
| RRIRWRPPRLPRPRPRPACRPRP | 0.258 |
| RRIRWRPPRLPRPRPRPADFPRP | -0.0275 |
| RRIRWRPPRLPRPRPRPAFDPRP | 0.397 |
| RRIRWRPPRLPRPRPRPAGTPRP | 0.349 |

| Sequence | shrunken log2 fold change |
| --- | --- |
| RRIRWRPPRLPRPRPRPAIMPRP | -0.211 |
| RRIRWRPPRLPRPRPRPALNPRP | 0.801 |
| RRIRWRPPRLPRPRPRPAMYPRP | -0.112 |
| RRIRWRPPRLPRPRPRPAQWPRP | 0.287 |
| RRIRWRPPRLPRPRPRPASEPRP | 0.329 |
| RRIRWRPPRLPRPRPRPASSPRP | -0.0381 |
| RRIRWRPPRLPRPRPRPATNPRP | 0.317 |
| RRIRWRPPRLPRPRPRPATPPRP | 0.755 |
| RRIRWRPPRLPRPRPRPAVAPRP | 0.544 |
| RRIRWRPPRLPRPRPRPAVNPRP | 0.185 |
| RRIRWRPPRLPRPRPRPAYVPRP | 0.0521 |
| RRIRWRPPRLPRPRPRPCAVPRP | 0.198 |
| RRIRWRPPRLPRPRPRPCDDPRP | -0.00725 |
| RRIRWRPPRLPRPRPRPCESPRP | -0.0177 |
| RRIRWRPPRLPRPRPRPCETPRP | -0.0636 |
| RRIRWRPPRLPRPRPRPCGKPRP | 0.0489 |
| RRIRWRPPRLPRPRPRPCHPPRP | -0.11 |
| RRIRWRPPRLPRPRPRPCIVPRP | 0.0112 |
| RRIRWRPPRLPRPRPRPCIYPRP | -0.162 |
| RRIRWRPPRLPRPRPRPCKEPRP | -0.125 |
| RRIRWRPPRLPRPRPRPCLAPRP | 0.329 |
| RRIRWRPPRLPRPRPRPCLQPRP | -0.21 |
| RRIRWRPPRLPRPRPRPCLSPRP | -0.15 |
| RRIRWRPPRLPRPRPRPCMMPRP | -0.229 |
| RRIRWRPPRLPRPRPRPCMSPRP | -0.00264 |

| Sequence | shrunken log2 fold change |
| --- | --- |
| RRIRWRPPRLPRPRPRPCNEPRP | -0.409 |
| RRIRWRPPRLPRPRPRPCNIPRP | -0.133 |
| RRIRWRPPRLPRPRPRPCNKPRP | -0.738 |
| RRIRWRPPRLPRPRPRPCRDPRP | -0.0737 |
| RRIRWRPPRLPRPRPRPCREPRP | -0.189 |
| RRIRWRPPRLPRPRPRPCSLPRP | -0.0592 |
| RRIRWRPPRLPRPRPRPCSVPRP | 0.0151 |
| RRIRWRPPRLPRPRPRPCTCPRP | 0.0236 |
| RRIRWRPPRLPRPRPRPCTVPRP | -0.438 |
| RRIRWRPPRLPRPRPRPCVCPRP | 0.222 |
| RRIRWRPPRLPRPRPRPDAAPRP | 2.23 |
| RRIRWRPPRLPRPRPRPDACPRP | 0.00464 |
| RRIRWRPPRLPRPRPRPDAWPRP | 0.884 |
| RRIRWRPPRLPRPRPRPDCPPRP | 0.0548 |
| RRIRWRPPRLPRPRPRPDDRPRP | 0.171 |
| RRIRWRPPRLPRPRPRPDEMPRP | -0.0412 |
| RRIRWRPPRLPRPRPRPDENPRP | 0.644 |
| RRIRWRPPRLPRPRPRPDEPPRP | -0.00634 |
| RRIRWRPPRLPRPRPRPDGAPRP | 0.227 |
| RRIRWRPPRLPRPRPRPDGHPRP | 0.0237 |
| RRIRWRPPRLPRPRPRPDHMPRP | -0.128 |
| RRIRWRPPRLPRPRPRPDHTPRP | -0.000848 |
| RRIRWRPPRLPRPRPRPDIHPRP | -0.196 |
| RRIRWRPPRLPRPRPRPDIVPRP | 0.469 |
| RRIRWRPPRLPRPRPRPDIYPRP | -0.0594 |

| Sequence | shrunken log2 fold change |
| --- | --- |
| RRIRWRPPRLPRPRPRPDKAPRP | -0.00149 |
| RRIRWRPPRLPRPRPRPDKIPRP | -0.0504 |
| RRIRWRPPRLPRPRPRPDLHPRP | 0.243 |
| RRIRWRPPRLPRPRPRPDLWPRP | 0.234 |
| RRIRWRPPRLPRPRPRPDMCPRP | 0.262 |
| RRIRWRPPRLPRPRPRPDMGPRP | 0.454 |
| RRIRWRPPRLPRPRPRPDMSPRP | -0.121 |
| RRIRWRPPRLPRPRPRPDMYPRP | -0.389 |
| RRIRWRPPRLPRPRPRPDNHPRP | -0.299 |
| RRIRWRPPRLPRPRPRPDNYPRP | -0.00844 |
| RRIRWRPPRLPRPRPRPDSVPRP | -0.0816 |
| RRIRWRPPRLPRPRPRPDTMPRP | 0.19 |
| RRIRWRPPRLPRPRPRPDVQPRP | 0.0431 |
| RRIRWRPPRLPRPRPRPDVSPRP | 0.265 |
| RRIRWRPPRLPRPRPRPDWEPRP | 0.229 |
| RRIRWRPPRLPRPRPRPDYSPRP | -0.106 |
| RRIRWRPPRLPRPRPRPECCPRP | 1.22 |
| RRIRWRPPRLPRPRPRPECLPRP | 0.444 |
| RRIRWRPPRLPRPRPRPEDFPRP | 0.0629 |
| RRIRWRPPRLPRPRPRPEGNPRP | 0.29 |
| RRIRWRPPRLPRPRPRPEGYPRP | 0.607 |
| RRIRWRPPRLPRPRPRPEIVPRP | -0.00443 |
| RRIRWRPPRLPRPRPRPEKQPRP | 0.0441 |
| RRIRWRPPRLPRPRPRPELGPRP | -0.0384 |
| RRIRWRPPRLPRPRPRPELHPRP | 0.308 |

| Sequence | shrunken log2 fold change |
| --- | --- |
| RRIRWRPPRLPRPRPRPEMFPRP | 0.274 |
| RRIRWRPPRLPRPRPRPEMHPRP | 0.952 |
| RRIRWRPPRLPRPRPRPEMLPRP | 1.17 |
| RRIRWRPPRLPRPRPRPEMPPRP | 0.364 |
| RRIRWRPPRLPRPRPRPEMYPRP | 0.144 |
| RRIRWRPPRLPRPRPRPENLPRP | 0.0583 |
| RRIRWRPPRLPRPRPRPENYPRP | -0.122 |
| RRIRWRPPRLPRPRPRPEPTPRP | 0.857 |
| RRIRWRPPRLPRPRPRPEQEPRP | 0.0529 |
| RRIRWRPPRLPRPRPRPEQIPRP | 0.199 |
| RRIRWRPPRLPRPRPRPEQPPRP | 0.157 |
| RRIRWRPPRLPRPRPRPEQQPRP | 1.39 |
| RRIRWRPPRLPRPRPRPERPPRP | 0.292 |
| RRIRWRPPRLPRPRPRPESFPRP | 0.528 |
| RRIRWRPPRLPRPRPRPESLPRP | 0.412 |
| RRIRWRPPRLPRPRPRPETCPRP | 0.16 |
| RRIRWRPPRLPRPRPRPEVCPRP | 0.000572 |
| RRIRWRPPRLPRPRPRPEVLPRP | 0.167 |
| RRIRWRPPRLPRPRPRPEWWPRP | -0.0316 |
| RRIRWRPPRLPRPRPRPEYGPRP | 0.222 |
| RRIRWRPPRLPRPRPRPFCIPRP | -0.293 |
| RRIRWRPPRLPRPRPRPFCKPRP | -0.13 |
| RRIRWRPPRLPRPRPRPFDMPRP | -0.105 |
| RRIRWRPPRLPRPRPRPFGFPRP | 0.321 |
| RRIRWRPPRLPRPRPRPFGNPRP | -0.0165 |
